Measured values taken from article PMC2756588.

T1: Cyk3, Q07533
T1 sequence (Q07533 1-83, looked up): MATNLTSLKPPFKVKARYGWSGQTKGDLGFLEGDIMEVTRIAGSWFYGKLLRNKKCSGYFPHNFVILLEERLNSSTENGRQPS

T2: Hse1, P38753
T2 sequence (P38753 208-285, looked up): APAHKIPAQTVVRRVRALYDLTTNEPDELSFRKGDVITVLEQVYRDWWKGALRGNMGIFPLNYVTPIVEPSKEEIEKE

T3: Cdc25, P04821
T3 sequence (P04821 50-136, looked up): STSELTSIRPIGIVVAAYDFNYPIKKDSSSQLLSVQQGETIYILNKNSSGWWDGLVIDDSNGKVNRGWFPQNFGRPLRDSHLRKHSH

T4: Pex13, P80667
T4 sequence (P80667 295-386, looked up): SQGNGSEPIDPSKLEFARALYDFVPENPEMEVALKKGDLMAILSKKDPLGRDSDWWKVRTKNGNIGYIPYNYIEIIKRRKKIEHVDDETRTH

T5: Myo5, Q04439
T5 sequence (Q04439 1072-1160, looked up): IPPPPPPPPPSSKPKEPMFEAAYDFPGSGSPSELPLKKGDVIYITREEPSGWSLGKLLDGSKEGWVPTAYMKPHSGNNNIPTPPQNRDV

T6: Boi2, P39969
T6 sequence (P39969 32-116, looked up): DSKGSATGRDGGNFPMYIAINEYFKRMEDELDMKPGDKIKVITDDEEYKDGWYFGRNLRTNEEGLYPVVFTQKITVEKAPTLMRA

T7: Bud14, P27637
T7 sequence (P27637 247-328, looked up): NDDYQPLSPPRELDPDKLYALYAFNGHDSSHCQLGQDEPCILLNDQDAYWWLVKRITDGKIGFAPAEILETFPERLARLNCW

T8: Lsb1, P53281
T8 sequence (P53281 45-122, looked up): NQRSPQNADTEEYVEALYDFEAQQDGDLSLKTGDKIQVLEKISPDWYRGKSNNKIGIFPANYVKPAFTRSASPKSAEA

T9: Pin3, Q06449
T9 sequence (Q06449 53-122, looked up): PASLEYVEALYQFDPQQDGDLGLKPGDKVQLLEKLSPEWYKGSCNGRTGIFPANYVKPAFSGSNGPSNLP

T10: Nbp2, Q12163
T10 sequence (Q12163 103-180, looked up): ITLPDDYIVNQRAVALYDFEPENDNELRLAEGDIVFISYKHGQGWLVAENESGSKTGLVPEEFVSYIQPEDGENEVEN

T11: Bbc1, P47068
T11 sequence (P47068 1-78, looked up): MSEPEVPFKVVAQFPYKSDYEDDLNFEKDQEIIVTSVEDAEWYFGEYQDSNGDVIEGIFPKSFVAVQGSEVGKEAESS

T12: Lsb4, P32793
T12 sequence (P32793 402-468, looked up): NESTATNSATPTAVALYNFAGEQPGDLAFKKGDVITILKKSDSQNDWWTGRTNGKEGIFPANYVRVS

T13: Sla1-3, P32790
T13 sequence (P32790 344-424, looked up): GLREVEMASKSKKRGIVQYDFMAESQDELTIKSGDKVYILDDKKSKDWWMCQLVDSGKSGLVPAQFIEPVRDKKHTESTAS

T14: Boi1, P38041
T14 sequence (P38041 1-86, looked up): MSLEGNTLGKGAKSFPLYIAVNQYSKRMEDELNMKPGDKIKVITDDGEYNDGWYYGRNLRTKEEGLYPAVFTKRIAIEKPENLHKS

T15: Sla1-2, P32790
T15 sequence (P32790 60-140, looked up): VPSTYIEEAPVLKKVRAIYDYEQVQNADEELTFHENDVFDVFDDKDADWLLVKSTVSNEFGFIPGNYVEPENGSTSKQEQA

T16: Bzz1-1, P38822
T16 sequence (P38822 478-572, looked up): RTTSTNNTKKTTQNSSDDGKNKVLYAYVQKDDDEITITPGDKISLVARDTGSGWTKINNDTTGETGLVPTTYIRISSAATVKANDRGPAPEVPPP

T17: Abp1, P15891
T17 sequence (P15891 535-592, looked up): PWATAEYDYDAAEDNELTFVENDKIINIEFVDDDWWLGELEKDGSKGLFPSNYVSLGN

T18: Bzz1-2, P38822
T18 sequence (P38822 568-633, looked up): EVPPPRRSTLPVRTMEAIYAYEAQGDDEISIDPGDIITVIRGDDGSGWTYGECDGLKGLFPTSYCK

T19: Fus1, P11710
T19 sequence (P11710 432-512, looked up): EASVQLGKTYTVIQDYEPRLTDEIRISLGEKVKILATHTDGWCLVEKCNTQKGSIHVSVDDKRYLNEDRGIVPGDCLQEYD

T20: Hof1, Q05080
T20 sequence (Q05080 590-669, looked up): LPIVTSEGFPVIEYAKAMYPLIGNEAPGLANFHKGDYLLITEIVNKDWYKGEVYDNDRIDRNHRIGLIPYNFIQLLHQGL

T21: Lsb3, P43603
T21 sequence (P43603 385-451, looked up): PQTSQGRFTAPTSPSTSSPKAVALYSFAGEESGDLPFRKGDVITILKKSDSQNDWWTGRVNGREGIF


Columns and labels:
Test in all cases: SPOT array
Cyk3, Q07533 = target: T1, Cyk3, Q07533; settings: median of control spots 1451
Hse1, P38753 = target: T2, Hse1, P38753; settings: median of control spots 1727
Cdc25, P04821 = target: T3, Cdc25, P04821; settings: median of control spots 969
Sho1, P40073 = settings: median of control spots 1148
Sho1, P40073, sequence (P40073 287-367): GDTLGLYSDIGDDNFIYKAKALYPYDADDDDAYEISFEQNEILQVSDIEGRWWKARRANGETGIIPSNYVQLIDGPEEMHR

Pex13, P80667 = target: T4, Pex13, P80667; settings: median of control spots 1341
Bem1-2, P29366 = settings: median of control spots 4347
Bem1-2, P29366, sequence (P29366 139-227): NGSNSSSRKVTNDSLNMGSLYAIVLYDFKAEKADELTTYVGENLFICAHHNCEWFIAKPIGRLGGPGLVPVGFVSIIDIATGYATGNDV

Myo5, Q04439 = target: T5, Myo5, Q04439; settings: median of control spots 471
Bem1-1, P29366 = settings: median of control spots 4282
Bem1-1, P29366, sequence (P29366 55-141): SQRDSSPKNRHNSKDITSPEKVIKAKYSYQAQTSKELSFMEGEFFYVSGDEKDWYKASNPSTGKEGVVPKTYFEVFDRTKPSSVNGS

Boi2, P39969 = target: T6, Boi2, P39969; settings: median of control spots 1161
Bud14, P27637 = target: T7, Bud14, P27637; settings: median of control spots 956
Lsb1, P53281 = target: T8, Lsb1, P53281; settings: median of control spots 388
Pin3, Q06449 = target: T9, Pin3, Q06449; settings: median of control spots 2171
Nbp2, Q12163 = target: T10, Nbp2, Q12163; settings: median of control spots 357
GST = settings: median of control spots 978
Myo3, P36006 = settings: median of control spots 468
Rvs167, P39743 = settings: median of control spots 2707
Rvs167, P39743, sequence (P39743 419-482): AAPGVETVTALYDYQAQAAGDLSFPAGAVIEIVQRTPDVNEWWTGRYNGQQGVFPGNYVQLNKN

Bbc1, P47068 = target: T11, Bbc1, P47068; settings: median of control spots 796
Lsb4, P32793 = target: T12, Lsb4, P32793; settings: median of control spots 397
Sla1-3, P32790 = target: T13, Sla1-3, P32790; settings: median of control spots 5475
Boi1, P38041 = target: T14, Boi1, P38041; settings: median of control spots 1162
Sla1-2, P32790 = target: T15, Sla1-2, P32790; settings: median of control spots 712
Bzz1-1, P38822 = target: T16, Bzz1-1, P38822; settings: median of control spots 4446
Abp1, P15891 = target: T17, Abp1, P15891; settings: median of control spots 935
Bzz1-2, P38822 = target: T18, Bzz1-2, P38822; settings: median of control spots 4538
Fus1, P11710 = target: T19, Fus1, P11710; settings: median of control spots 1200
Hof1, Q05080 = target: T20, Hof1, Q05080; settings: median of control spots 4086
Lsb3, P43603 = target: T21, Lsb3, P43603; settings: median of control spots 406

Binder	SPOT intensity (Cyk3, Q07533)	SPOT intensity (Hse1, P38753)	SPOT intensity (Cdc25, P04821)	SPOT intensity (Sho1, P40073)	SPOT intensity (Pex13, P80667)	SPOT intensity (Bem1-2, P29366)	SPOT intensity (Myo5, Q04439)	SPOT intensity (Bem1-1, P29366)	SPOT intensity (Boi2, P39969)	SPOT intensity (Bud14, P27637)	SPOT intensity (Lsb1, P53281)	SPOT intensity (Pin3, Q06449)	SPOT intensity (Nbp2, Q12163)	SPOT intensity (GST)	SPOT intensity (Myo3, P36006)	SPOT intensity (Rvs167, P39743)	SPOT intensity (Bbc1, P47068)	SPOT intensity (Lsb4, P32793)	SPOT intensity (Sla1-3, P32790)	SPOT intensity (Boi1, P38041)	also measured
HRRRRVFSIPSLKSI	5	19	131	123	4	8	0	1	4	64	114	7	176	1	6	3	395	10	117	15	SPOT intensity (Sla1-2, P32790): 0; SPOT intensity (Bzz1-1, P38822): 3; SPOT intensity (Abp1, P15891): 158; SPOT intensity (Bzz1-2, P38822): 5; SPOT intensity (Fus1, P11710): 136; SPOT intensity (Hof1, Q05080): 17; SPOT intensity (Lsb3, P43603): 5
KRKRFNLLLPKPYLT	3	12	32	98	3	4	0	3	2	34	0	0	53	2	0	3	175	1	34	9	SPOT intensity (Sla1-2, P32790): 2; SPOT intensity (Bzz1-1, P38822): 3; SPOT intensity (Abp1, P15891): 72; SPOT intensity (Bzz1-2, P38822): 6; SPOT intensity (Fus1, P11710): 64; SPOT intensity (Hof1, Q05080): 4; SPOT intensity (Lsb3, P43603): 0
RRRRRPHRIERPLSN	5	16	28	270	2	5	1	1	0	24	0	1	74	1	7	4	515	6	25	9	SPOT intensity (Sla1-2, P32790): 0; SPOT intensity (Bzz1-1, P38822): 2; SPOT intensity (Abp1, P15891): 133; SPOT intensity (Bzz1-2, P38822): 5; SPOT intensity (Fus1, P11710): 43; SPOT intensity (Hof1, Q05080): 4; SPOT intensity (Lsb3, P43603): 8
VNFRRIPTGPDSPPT	0	4	0	19	6	0	0	0	0	3	0	0	0	0	0	2	2	2	17	0	SPOT intensity (Sla1-2, P32790): 0; SPOT intensity (Bzz1-1, P38822): 0; SPOT intensity (Abp1, P15891): 5; SPOT intensity (Bzz1-2, P38822): 3; SPOT intensity (Fus1, P11710): 0; SPOT intensity (Hof1, Q05080): 3; SPOT intensity (Lsb3, P43603): 2
